Data on three molecules can be found in patent US20020120098A1, “Enhanced stimulation of erythropoiesis” (priority 1996, published 2002).

Where two headings read alike, the source gives them in different places.

The test system of data set [1] is CFU-GM. Put plainly: Colony formation assay (CFA), cord blood LDMNC: CFU-GM colonies. It counts as cell-based, human. As to the method:
(§1) This technique, referred to as the colony formation assay (CFA), is the most widely used biological assay to identify and enumerate erythroid progenitors present in hematopoietic tissue such as blood and bone marrow. Cell populations containing erythroid progenitors are plated in semi-solid suspensions of methyl cellulose, agar, low melting agarose or related substances in nutrient culture medium containing 1-3 U/ml Epo and 10 ng/ml IL-3 to specifically stimulate erythroid progenitors. Plates are incubated at 37° C. for 14 days during which time the erythroid progenitors form characteristic hemoglobinized (red) colonies. Two distinct but related erythroid progenitors can be distinguished based on colony size and morphology: BFU-E, the most primitive recognizable erythroid progenitor forms large multilobular colonies whereas the more mature CFU-E forms smaller spherical colonies.
(§2) Adult hemoglobin was purified according to U.S Pat. Nos. 5,439,591 and 5,545,328 to obtain HAo and HEMOLINK™ was prepared from HAo according to U.S. Pat. No. 5,532,352. Human umbilical cord blood intended for discard was collected from the umbilical vein of placentas immediately postpartum into 10 ml vacutainer tubes containing 143 USP units/ml sodium heparin. Low density mononuclear cells were separated from red blood cells by centrifugation over a 1.077 g/ml density gradient Cells removed from the plasma/density gradient interface were incubated overnight in a tissue culture flask with 10 ml cell culture medium containing 10% fetal bovine serum, and non-adherent LDMNC were further purified with an additional density gradient step. The LDMNC were then plated into colony formation assays (CFA) on the second day of isolation. In the CFA, LDMNC were plated at a density of 1×10^5 cells/ml in Iscoves modified Dulbeccos cell culture medium containing 0.8% methyl-cellulose, 30% fetal bovine serum, 1% bovine serum albumin, 0.1 mM 2-mercaptoethanol and 2 mM L-glutamine. Unless indicated otherwise, under standard CFA conditions 2 U/ml Epo and 10 ng/ml IL-3 are added to the formulation to stimulate hematopoietic progenitor growth, specifically BFU-E, CFU-E and CFU-GM.
(§3) Each condition was tested in duplicate in from 2-18 independent experiments. Cultures were maintained in a humidified incubator at 37° C., 5% CO2 and ambient oxygen tensions. The number of hematopoietic progenitors was scored between days 13-15 by counting the number and types of colonies present.
(§4) The effect of the various additives on the inhibitory effect of succinylacetone (SA), a heme synthesis inhibitor, on erythroid progenitors was determined. Primary LDMNC were cultured in methyl cellulose as described in Example 1. Cord blood LDMN were plated in the presence of 1.0 mg/ml HAo (15.6 μM; n=12) or HEMOLINK™ (15.6 μM; n=5), 100 μM hemin (n=12), 250 μM FeCl3 (n=11) or no addition (n=12), in absence or presence of 0.5 mM SA. Cultures were maintained in a humidified chamber at 37° C., 5% CO2, and ambient oxygen tensions for 14 days.
HEMOLINK™ was evaluated for its ability to protect erythroid progenitor cells from toxicity due to ganciclovir. Cord blood LDMNC were set up in CFAs in the presence and absence of 1 mg/ml HEMOLINK™ plus 0, 0.1, 1.0, 10, 50 or 100 μM ganciclovir. Conditions for the CFA were similar to those described in Examples 1-4. […] All data are expressed relative to the number of colonies of control plates without HEMOLINK™. The hematopoietic progenitors display different sensitivities to ganciclovir. CFU-E were unaffected by 1 μM ganciclovir. However, a similar inhibition of BFU-E occurs at a 50-fold lower dose of ganciclovir (1 μM). […] Due to the difficulty in scoring CFU-GM in the presence of hemoglobin precipitates, as previously noted, they could not be accurately measured under these conditions. Thus, HEMOLINK™ reduces toxicity of ganciclovir to erythroid progenitors with the most pronounced effect on BFU-E cells.

Data set [2] concerns total erythroid progenitors (BFU-E+CFU-E). Put plainly: Inhibition of succinylacetone (SA) toxicity to erythroid progenitors in CFA. It counts as cell-based, human. To be noted: 0.5 mM SA only, no other addition. As to the method: as §4
Results are expressed as the number of total erythroid progenitors (BFU-E+CFU-E) present on plates treated with the various additives in the presence of SA relative to the number present on untreated plates (no SA or other addition). Significant differences in the presence of the respective additives compared to no addition (SA only; relative progenitor number=0.31) are as indicated: *p<0.001, **p<0.0001. Significant differences in the presence of the respective additives compared to no treatment (no SA; solid line at relative erythroid progenitor number=1.0) are as indicated: +p<0.05, ++p<0.001.

The subject of data set [3] is CFU-E. Put plainly: Colony formation assay (CFA), cord blood LDMNC: CFU-E colonies. It counts as cell-based, human. To be noted: absence of HEMOLINK
The procedure:
as §1, §2, §3
(§5) Erythroid progenitor colony formation assays were conducted as described in Example 1 except that cultures were incubated at either ambient oxygen tensions (˜20% O2) or 5% O2. The reduced oxygen tension of 5% O2 approximates the physiological intravascular oxygen tension in mammals. The mean fold increase in cord blood BFU-E, CFU-E and CFU-GM progenitor number at 5% O2 produced by 1.0 mg/ml HAo (15.6 μM; n=11) or HEMOLINK™ (15.6 μM; n=6), 100 μM hemin (n=10), 250 μM FeCl3 (n=6) or no addition (n=17-18), is shown FIG. 2. Results are expressed relative to control cells treated only with respective vehicles and cultured at ambient oxygen tensions (˜20% O2; fold expansion=1.0; *p<0.05, **p<0.01).
(§6) Erythroid progenitor colony formation assays were conducted as described in Example 1 except that cultures were initiated in the presence of Epo concentrations ranging from 0-2 U/ml. The mean fold increase in cord blood BFU-E, CFU-E and CFU-GM progenitor number produced by 1.0 mg/ml HAo (15.6 μM; n=9) or HEMOLINK™ (15.6 μM; n=6), 100 μM hemin (n=8), 250 μM FeCl3 (n=6), or no addition (n=9-10) in the presence of reduced Epo concentrations (0.2 U/ml) is shown in FIG. 3. Cultures were maintained at ambient oxygen tensions (˜20% O2) for 14 days. Results are expressed relative to control cells at 2 U/ml Epo treated only with the respective vehicles (solid line at fold expansion=1.0; *p<0.05, **p<0 01). Erythroid progenitor colonies were undetectable in the absence of Epo. […]

In data set [4] the test system is BFU-E. As to the kind of experiment: Colony formation assay (CFA), cord blood LDMNC: BFU-E colonies. It counts as cell-based, human. The conditions noted are these: 0.1-100 μM ganciclovir, absence of HEMOLINK
As to the method: as §1, §2, §3, §5, §6

Data set [5] can be described thus: Half-life and blood level of Epo versus HEMOLINK after single i.v. administration. The format is in vivo. To be noted: single i.v. 225 U/kg. From the text: Another strategy for the co-administration of Epo and hemoglobin is to reduce the number of Epo administrations required during therapy. Several Epo therapies follow the regimen of three weekly injections, either intravenously or subcutaneously. Multiple low dose or single high dose injections of Epo are required due to its relatively short half-life in vivo. […] HEMOLINK™ has a longer half-life. […] Longer half-life of the cross-linked hemoglobin can therefore compensate for Epo which may decline at a much faster rate. Thus, hemoglobin co-administered with Epo could prolong the effectiveness of Epo and therefore this combination therapy can be used to reduce the required frequency of Epo administrations.

The conditions of data set [6]: cited from earlier work.

Take `CC(=O)CC(=O)CCC(=O)O` [SA, Succinylacetone]: the “effect of SA on CFU-GM proliferation” value in data set [1] (0.5 mM SA) is given as “did not inhibit CFU-GM proliferation”. Also, the “relative erythroid progenitor number (BFU-E+CFU-E) vs untreated plates” value in data set [2] turned out to be 0.31.

Regarding `Nc1nc(O)c2ncn(COC(CO)CO)c2n1` [ganciclovir], the “dose at which CFU-GM are completely inhibited” value in data set [1] (human, 14 days) is listed as “greater than 10 μM”. Moreover, in data set [3] (1 μM ganciclovir), the “effect on CFU-E at 1 μM ganciclovir” value is reported as “unaffected”. Besides, the “inhibition of CFU-E by ganciclovir” value in data set [3] (0.1-100 μM ganciclovir) is reported as “dose-dependent inhibition”. In addition, the “inhibition of BFU-E by ganciclovir” value in data set [4] is “dose-dependent inhibition”.

Turning to “Epo: recombinant human Epo; hormone that stimulates erythroid progenitors”, the Epo level in data set [5] (0 hours post administration, assuming 85 ml/kg) is on record as 2.7 U/ml; in data set [5] (21 hours post administration), 0.33 U/ml; in data set [5] (42 hours post administration), 0.041 U/ml; in data set [5] (63 hours post administration) it was 0.0052 U/ml; in data set [5] (84 hours post administration), 0.00065 U/ml. Also, the half-life in plasma in data set [6] (after a subcutaneous injection) was 11.2 to 21.1 h; in data set [6] (after an intravenous injection), 5.6 to 8.8 h. Further, the “fraction of subcutaneous dose absorbed into the bloodstream” value in data set [6] (subcutaneous) is recorded as 21.5-46.6%.
